Experimental data as given in patent US20220089710A1, “Method of Treating Signs and Symptoms of Osteoarthritis” (Pfizer Inc., priority 2019, published 2022).

Test system: patients with osteoarthritis (OA) of the knee or hip
Assay: Example 3: adjudicated joint safety outcomes (patient-level and joint-level) and total joint replacements, Safety Population
Format: in vivo, human
Conditions: for rapidly progressive OA (types 1 and 2 combined): % of patients: any adjudicated RPOA
From the text: Central radiology readers (Central Readers) may be board certified radiologists or have the international equivalent as musculoskeletal radiologists. The Central Readers may be governed by an imaging atlas and an imaging Charter which includes a specific description of the scope of their responsibilities. Central Readers may review the radiology images at Screening for assessment of eligibility (including determination of Kellgren-Lawrence Grade) and identification of exclusionary joint conditions such as rapidly progressive osteoarthritis, atrophic or hypotrophic osteoarthritis, subchondral insufficiency fractures (spontaneous osteonecrosis of the knee [SPONK]), primary osteonecrosis and pathological fractures. After start of treatment, the Central Reader may review radiology images for diagnosis of joint conditions that would warrant further evaluation by the Adjudication Committee such as possible or probable rapidly progressive osteoarthritis, subchondral insufficiency fractures (spontaneous osteonecrosis of the knee [SPONK]), primary osteonecrosis or pathological fracture.
For subjects who are identified with a possible or probable joint event (i.e., rapidly progressive osteoarthritis, subchondral insufficiency fractures, spontaneous osteonecrosis of the knee (SPONK), primary osteonecrosis or pathological fracture) and subjects undergoing total joint replacement for any reason, all images and other source documentation may be provided to the blinded Adjudication Committee for review and adjudication of the event. The Adjudication Committee's assessment of the event may represent the final classification of the event.
This study was designed with a total (post-randomization) duration of 80 weeks and consisted of three periods: Screening (up to a maximum of 37 days), Double-blind Treatment (56 weeks), and Safety Follow-up (24 weeks) (FIG. 1). The Screening Period included a Washout Period (lasting 2-30 days) if required, and an Initial Pain Assessment Period (7 days prior to Randomization/Baseline; minimum 3 days).

[1] = 2.5 mg SC, observation time-adjusted analysis
[2] = 2.5 mg SC, primary outcome per subject
[3] = 5 mg SC, observation time-adjusted analysis
[4] = 5 mg SC, primary outcome per subject
[5] = tanezumab 2.5 mg (N = 1002), joint-level
[6] = tanezumab 5 mg (N = 998), joint-level

tanezumab: humanized immunoglobulin G Type 2 (IgG2) monoclonal antibody directed against human nerve growth factor (NGF); SEQ ID NOs: 9 or 11 and 10
Observation time-adjusted incidence of patients with ≥1 reported TJR (2.5 mg SC): (51.8) /1000 patient-years | Pathological Fracture: observation time-adjusted rate (2.5 mg SC): (0) /1000 patient-years | Patients analyzed by the Adjudication Committee: n (2.5 mg SC): 115 | Primary Composite Joint Safety Endpoint: rate difference vs. NSAID (2.5 mg SC): 22.5 | Primary Osteonecrosis: observation time-adjusted rate (2.5 mg SC): (0) /1000 patient-years | Rapidly Progressive OA type 1: observation time-adjusted rate (2.5 mg SC): (28.4) /1000 patient-years | Rapidly Progressive OA type 1: rate difference vs. NSAID (2.5 mg SC): 17.6 | Rapidly Progressive OA type 2: rate difference vs. NSAID (2.5 mg SC): 1.9 | Rapidly Progressive OA: rate difference vs. NSAID (2.5 mg SC): 19.6 | Secondary Composite Joint Safety Endpoint: observation time-adjusted rate (2.5 mg SC): (8.8) /1000 patient-years | Secondary Composite Joint Safety Endpoint: rate difference vs. NSAID (2.5 mg SC): 3.8 | Subchondral Insufficiency Fracture: observation time-adjusted rate (2.5 mg SC): (5.8) /1000 patient-years | Subchondral Insufficiency Fracture: rate difference vs. NSAID (2.5 mg SC): 1.9 | TJR: rate difference vs. NSAID (2.5 mg SC): 27.2 | patients with ≥1 reported TJR: number (2.5 mg SC): 53 | rapidly progressive OA (types 1 and 2 combined): % of patients (2.5 mg SC): 3.2% | Pathological Fracture: n [1]: 0 | Primary Composite Joint Safety Endpoint: n [1]: 38 | Primary Osteonecrosis: n [1]: 0 | Rapidly Progressive OA type 1: n [1]: 29 | Rapidly Progressive OA: n [1]: 32 | Secondary Composite Joint Safety Endpoint: n [1]: 9 | Subchondral Insufficiency Fracture: n [1]: 6 | Normal Progression of OA: % [2]: (6.6%) | Normal Progression of OA: n [2]: 66 | Not enough information to determine Rapid vs. Normal Progression of OA: % [2]: (0.2%) | Not enough information to determine Rapid vs. Normal Progression of OA: n [2]: 2 | Other Joint Outcome: % [2]: (0.9%) | Other Joint Outcome: n [2]: 9 | Pathological Fracture: n [2]: 0 | Primary Composite Joint Safety Endpoint: % [2]: 3.8% and (3.8%) | Primary Composite Joint Safety Endpoint: n [2]: 38 | Primary Osteonecrosis: n [2]: 0 | Rapidly Progressive OA type 1: % [2]: (2.9%) | Rapidly Progressive OA type 1: n [2]: 29 | Rapidly Progressive OA type 2: % [2]: (0.3%) | Rapidly Progressive OA: % [2]: (3.2%) | Rapidly Progressive OA: n [2]: 32 | Secondary Composite Joint Safety Endpoint: % [2]: (0.9%) | Secondary Composite Joint Safety Endpoint: n [2]: 9 | Subchondral Insufficiency Fracture: % [2]: (0.6%) | Subchondral Insufficiency Fracture: n [2]: 6 | Observation time-adjusted incidence of patients with ≥1 reported TJR (5 mg SC): (78.7) /1000 patient-years | Pathological Fracture: observation time-adjusted rate (5 mg SC): (0) /1000 patient-years | Patients analyzed by the Adjudication Committee: n (5 mg SC): 171 | Primary Composite Joint Safety Endpoint: rate difference vs. NSAID (5 mg SC): 56.7 | Primary Osteonecrosis: observation time-adjusted rate (5 mg SC): (1.0) /1000 patient-years | Rapidly Progressive OA type 1: observation time-adjusted rate (5 mg SC): (49.1) /1000 patient-years | Rapidly Progressive OA type 1: rate difference vs. NSAID (5 mg SC): 38.2 | Rapidly Progressive OA type 2: rate difference vs. NSAID (5 mg SC): 12.9 | Rapidly Progressive OA: rate difference vs. NSAID (5 mg SC): 51.5 | Secondary Composite Joint Safety Endpoint: observation time-adjusted rate (5 mg SC): (21.8) /1000 patient-years | Secondary Composite Joint Safety Endpoint: rate difference vs. NSAID (5 mg SC): 16.9 | Subchondral Insufficiency Fracture: observation time-adjusted rate (5 mg SC): (6.9) /1000 patient-years | Subchondral Insufficiency Fracture: rate difference vs. NSAID (5 mg SC): 3.0 | TJR: rate difference vs. NSAID (5 mg SC): 54.0 | patients with ≥1 reported TJR: number (5 mg SC): 79 | rapidly progressive OA (types 1 and 2 combined): % of patients (5 mg SC): 6.3% | Pathological Fracture: n [3]: 0 | Primary Composite Joint Safety Endpoint: n [3]: 71 | Primary Osteonecrosis: n [3]: 1 | Rapidly Progressive OA type 1: n [3]: 49 | Rapidly Progressive OA type 2: n [3]: 14 | Rapidly Progressive OA: n [3]: 63 | Secondary Composite Joint Safety Endpoint: n [3]: 22 | Subchondral Insufficiency Fracture: n [3]: 7 | Normal Progression of OA: % [4]: (7.9%) | Normal Progression of OA: n [4]: 79 | Not enough information to determine Rapid vs. Normal Progression of OA: n [4]: 0 | Other Joint Outcome: % [4]: (2.1%) | Other Joint Outcome: n [4]: 21 | Pathological Fracture: n [4]: 0 | Primary Composite Joint Safety Endpoint: % [4]: 7.1% and (7.1%) | Primary Composite Joint Safety Endpoint: n [4]: 71 | Primary Osteonecrosis: % [4]: (0.1%) | Primary Osteonecrosis: n [4]: 1 | Rapidly Progressive OA type 1: % [4]: (4.9%) | Rapidly Progressive OA type 1: n [4]: 49 | Rapidly Progressive OA type 2: % [4]: 1.4% and (1.4%) | Rapidly Progressive OA type 2: n [4]: 14 | Rapidly Progressive OA: % [4]: (6.3%) | Rapidly Progressive OA: n [4]: 63 | Secondary Composite Joint Safety Endpoint: % [4]: (2.2%) | Secondary Composite Joint Safety Endpoint: n [4]: 22 | Subchondral Insufficiency Fracture: % [4]: (0.7%) | Subchondral Insufficiency Fracture: n [4]: 7 | Rapidly Progressive OA type 1: Associated with TJR No, % [5]: (90.0%) | Rapidly Progressive OA type 1: Associated with TJR Yes, % [5]: (10.0%) | Rapidly Progressive OA type 1: Baseline Kellgren-Lawrence Grade of Affected Joint 0, % [5]: (3.3%) | Rapidly Progressive OA type 1: Baseline Kellgren-Lawrence Grade of Affected Joint 1, % [5]: (20.0%) | Rapidly Progressive OA type 1: Baseline Kellgren-Lawrence Grade of Affected Joint 2, % [5]: (36.7%) | Rapidly Progressive OA type 1: Baseline Kellgren-Lawrence Grade of Affected Joint 3, % [5]: (40.0%) | Rapidly Progressive OA type 1: Joint affected Hip, % [5]: (13.3%) | Rapidly Progressive OA type 1: Joint affected Knee, % [5]: (86.7%) | Rapidly Progressive OA type 2: Associated with TJR No, % [5]: (66.7%) | Rapidly Progressive OA type 2: Associated with TJR Yes, % [5]: (33.3%) | Rapidly Progressive OA type 2: Baseline Kellgren-Lawrence Grade of Affected Joint 3, % [5]: (33.3%) | Rapidly Progressive OA type 2: Baseline Kellgren-Lawrence Grade of Affected Joint 4, % [5]: (66.7%) | Rapidly Progressive OA type 2: Joint affected Hip, % [5]: (33.3%) | Rapidly Progressive OA type 2: Joint affected Knee, % [5]: (66.7%) | Subchondral Insufficiency Fracture: Associated with TJR No, % [5]: (100.0%) | Subchondral Insufficiency Fracture: Baseline Kellgren-Lawrence Grade of Affected Joint 2, % [5]: (33.3%) | Subchondral Insufficiency Fracture: Baseline Kellgren-Lawrence Grade of Affected Joint 3, % [5]: (66.7%) | Subchondral Insufficiency Fracture: Joint affected Hip, % [5]: (33.3%) | Subchondral Insufficiency Fracture: Joint affected Knee, % [5]: (66.7%) | Rapidly Progressive OA type 1: Associated with TJR No, % [6]: (84.9%) | Rapidly Progressive OA type 1: Associated with TJR Yes, % [6]: (15.1%) | Rapidly Progressive OA type 1: Baseline Kellgren-Lawrence Grade of Affected Joint 0, % [6]: (3.8%) | Rapidly Progressive OA type 1: Baseline Kellgren-Lawrence Grade of Affected Joint 1, % [6]: (20.8%) | Rapidly Progressive OA type 1: Baseline Kellgren-Lawrence Grade of Affected Joint 2, % [6]: (43.4%) | Rapidly Progressive OA type 1: Baseline Kellgren-Lawrence Grade of Affected Joint 3, % [6]: (30.2%) | Rapidly Progressive OA type 1: Baseline Kellgren-Lawrence Grade of Affected Joint Not Available, % [6]: (1.9%) | Rapidly Progressive OA type 1: Joint affected Hip, % [6]: (15.1%) | Rapidly Progressive OA type 1: Joint affected Knee, % [6]: (83.0%) | Rapidly Progressive OA type 1: Joint affected Shoulder, % [6]: (1.9%) | Rapidly Progressive OA type 2: Associated with TJR No, % [6]: (43.8%) | Rapidly Progressive OA type 2: Associated with TJR Yes, % [6]: (56.3%) | Rapidly Progressive OA type 2: Baseline Kellgren-Lawrence Grade of Affected Joint 0, % [6]: (12.5%) | Rapidly Progressive OA type 2: Baseline Kellgren-Lawrence Grade of Affected Joint 1, % [6]: (6.3%) | Rapidly Progressive OA type 2: Baseline Kellgren-Lawrence Grade of Affected Joint 2, % [6]: (6.3%) | Rapidly Progressive OA type 2: Baseline Kellgren-Lawrence Grade of Affected Joint 3, % [6]: (31.3%) | Rapidly Progressive OA type 2: Baseline Kellgren-Lawrence Grade of Affected Joint 4, % [6]: (37.5%) | Rapidly Progressive OA type 2: Baseline Kellgren-Lawrence Grade of Affected Joint Not Available, % [6]: (6.3%) | Rapidly Progressive OA type 2: Joint affected Hip, % [6]: (43.8%) | Rapidly Progressive OA type 2: Joint affected Knee, % [6]: (50.0%) | Rapidly Progressive OA type 2: Joint affected Shoulder, % [6]: (6.3%) | Subchondral Insufficiency Fracture: Associated with TJR No, % [6]: (57.1%) | Subchondral Insufficiency Fracture: Associated with TJR Yes, % [6]: (42.9%) | Subchondral Insufficiency Fracture: Baseline Kellgren-Lawrence Grade of Affected Joint 0, % [6]: (14.3%) | Subchondral Insufficiency Fracture: Baseline Kellgren-Lawrence Grade of Affected Joint 1, % [6]: (14.3%) | Subchondral Insufficiency Fracture: Baseline Kellgren-Lawrence Grade of Affected Joint 2, % [6]: (57.1%) | Subchondral Insufficiency Fracture: Baseline Kellgren-Lawrence Grade of Affected Joint 3, % [6]: (14.3%) | Subchondral Insufficiency Fracture: Joint affected Hip, % [6]: (14.3%) | Subchondral Insufficiency Fracture: Joint affected Knee, % [6]: (85.7%)
